Source: article PMC7948472, “Structural basis for antigen recognition by methylated lysine–specific antibodies” (The Journal of Biological Chemistry, 2020)
Each block holds one binder with its values, some of them ahead of it.

Target: T1, MAP3K2 peptide, NPIFEKFGKGGTYP (Homo sapiens)
T1 construct: MAP3K2 peptide surrounding Lys260, not methylated; also called non-methylated peptide; nonmethylated peptide; source: synthetic peptide (SCRUM Inc)
T1 chain: NPIFEKFGKGGTYP
Assay: SPR; Biacore T200; each Fab immobilised on a CM5 chip by amine coupling; peptides injected at increasing concentrations; running buffer PBS with 0.005% Tween 20; global fitting of the curves, or steady-state analysis where kinetic parameters could not be determined (fast dissociation, low affinity)
Details: both partners purified

Kd: 350 nM | koff: 0.18 ± 0.01 s⁻¹ | kon: 500000 M⁻¹ s⁻¹
B1: Fab E6 (Fab, V domains shown)
VH: DQSLEESGGRLVTPGTPLTLTCTVSGFSLNNNAMGWFRQAPGEGLEWIGAIYTDGSTYYASWAKGRFTISKTSTTIDLKMTSLTTEDTATYFCARHGYTYSFNLWGPGTLVTVSS
VL: DPVMTQTPPSVSAAVGGTVTISCQSSQSVYNNDNLAWYQQKPGQPPKRLIYGASTLDSGVPSRFKGSGSGTQFTLTISGVECDDAATYYCQGAYNVDIYPFGGGTEVVVK
notes: heavy chain of rabbit Fab clone E6; they are in PDB 6LDX chain H; light chain of rabbit Fab clone E6; they are in PDB 6LDX chain L; Purified on Ni-NTA, so a His tag is surmised; source: Expi293 cells, cotransfected, purified from supernatant (Ni-NTA, SEC)

Kd: 4000 nM | koff: 0.33 ± 0.04 s⁻¹ | kon: 86000 M⁻¹ s⁻¹
B2: Fab F9 (Fab, V domains shown)
VH: QSVEESGGRLVTPGTPLTLTCTVSGFSLNSNAISWVRQAPGEGLEWVGAIYTHGSTVYANWAKGRFTISKTSTTIELKMTSLTTEDTATYFCARHGYTYSFNLWGPGTLVTVSS
VL: AQGLTQTPSPVSAALGGTVTINCQSSQSVYGNNRLAWYQQKPGQPPKRLIYQASTLDSGVPSRFSGSGSGTQFTLTISGVQCDDAATYYCQGGYSSGDAWAFGGGTEVVVK
notes: heavy chain of rabbit Fab clone F9; they are in PDB 6LDV chain H; light chain of rabbit Fab clone F9; they are in PDB 6LDV chain L; Purified on Ni-NTA, so a His tag is surmised; source: Expi293 cells, cotransfected, purified from supernatant (Ni-NTA, SEC)
